The results in this text go back to US10722558 (dated 2020).

Positions count from the first letter of the chain named. Numbers in names are those of the source. Like-named read-outs stand apart in the source and are kept apart here.

The target in assay [1] is T1, GDF8 (human, UniProt O14793). The assay is described as follows: SPR. (In general: Surface plasmon resonance follows binding to a sensor surface in real time, without labels.)
Assay [2] deals with T2, Activin A (human, UniProt P08476).
T2 chain: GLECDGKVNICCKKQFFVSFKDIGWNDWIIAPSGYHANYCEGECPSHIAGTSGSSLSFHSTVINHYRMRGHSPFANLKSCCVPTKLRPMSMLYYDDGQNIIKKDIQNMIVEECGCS
The assay is described as follows: SPR.

Assay [3] addresses T3, GDF11 (human, UniProt O95390).
T3 chain: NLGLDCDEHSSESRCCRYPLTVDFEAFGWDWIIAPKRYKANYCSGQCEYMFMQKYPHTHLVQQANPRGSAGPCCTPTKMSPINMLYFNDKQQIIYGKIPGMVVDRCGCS
Description: SPR, very low signal.

Assay [4] deals with T4, Activin B (human, UniProt P09529).
T4 chain: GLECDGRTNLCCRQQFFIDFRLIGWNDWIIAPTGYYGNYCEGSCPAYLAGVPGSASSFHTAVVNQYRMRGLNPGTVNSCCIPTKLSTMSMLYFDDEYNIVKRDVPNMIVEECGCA
The assay is described as follows: SPR.

Assay [5] deals with T3, GDF11. Description: SPR.
Assay [6] concerns the target T2, Activin A. Description: SPR.
The target of assay [7] is T2, Activin A. Description: SPR.
For assay [8], the target named is T3, GDF11. The assay is described as follows: SPR.
Another assay deals with T5, BMP6 (human, UniProt P22004).
T5 chain: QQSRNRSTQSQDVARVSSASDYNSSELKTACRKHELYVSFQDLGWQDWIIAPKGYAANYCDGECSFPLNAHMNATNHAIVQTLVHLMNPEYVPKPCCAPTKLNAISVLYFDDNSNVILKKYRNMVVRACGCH
The assay is described as follows: SPR.

The target of the next assay is T6, BMP10 (human, UniProt O95393).
T6 chain: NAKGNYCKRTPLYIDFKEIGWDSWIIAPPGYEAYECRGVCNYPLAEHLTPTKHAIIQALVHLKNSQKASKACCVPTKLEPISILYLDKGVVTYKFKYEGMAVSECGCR
The assay is described as follows: SPR.

A further assay addresses T7, GDF3 (human, UniProt Q9NR23).
T7 chain: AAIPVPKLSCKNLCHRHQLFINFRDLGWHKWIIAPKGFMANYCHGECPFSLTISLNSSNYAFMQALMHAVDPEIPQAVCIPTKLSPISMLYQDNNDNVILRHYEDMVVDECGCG
The assay is described as follows: SPR.

Assay [9] concerns the target T1, GDF8. Description: SPR. This is another data set of the same source.
Assay [10] has as its target T3, GDF11. Description: SPR.
For assay [11], the target named is T2, Activin A. The assay is described as follows: SPR.
Assay [12] deals with T4, Activin B. The assay is described as follows: SPR.
A further assay deals with T8, BMP9 (human, UniProt Q9UK05).
T8 chain: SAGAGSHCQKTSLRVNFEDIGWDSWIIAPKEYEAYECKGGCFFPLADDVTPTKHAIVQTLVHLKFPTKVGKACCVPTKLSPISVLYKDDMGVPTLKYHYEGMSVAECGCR
The assay is described as follows: SPR, transient.

T1 sequence (O14793 267-375): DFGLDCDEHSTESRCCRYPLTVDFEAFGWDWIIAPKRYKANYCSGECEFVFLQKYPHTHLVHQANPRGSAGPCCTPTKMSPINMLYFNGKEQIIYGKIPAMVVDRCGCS

B1: ActRIIB(R64K 20-129)-hFc (protein)
chain: GRGEAETRECIYYNANWELERTNQSGLERCEGEQDKRLHCYASWKNSSGTIELVKKGCWLDDFNCYDRQECVATEENPQVYFCCCEGNFCNERFTHLPEAGGPEVTYEPP
Regarding B1, the Kd with GDF8 [1] stood at 2.15 nM; in the assay with Activin A [2], 0.0841 nM.

B2: ALK4-Fc homodimer (protein)
chain: SGPRGVQALLCACTSCLQANYTCETDGACMVSIFNLDGMEHHVRTCIPKVELVPAGKPFYCLSSEDLRNTHCCYTDYCNRIDLRVPSGHLKEPEHPSMWGPVE
In the assay with GDF11 [3], B2 yielded a Kd of 0.27 nM.

B3: ActRIIB(L79D 20-134)-hFc (protein)
chain: GRGEAETRECIYYNANWELERTNQSGLERCEGEQDKRLHCYASWRNSSGTIELVKKGCWDDDFNCYDRQECVATEENPQVYFCCCEGNFCNERFTHLPEAGGPEVTYEPPPTAPTGGGTHTCPPCPAPELLGGPSVFLFPPKPKDTLMISRTPEVTCVVVDVSHEDPEVKFNWYVDGVEVHNAKTKPREEQYNSTYRVVSVLTVLHQDWLNGKEYKCKVSNKALPVPIEKTISKAKGQPREPQVYTLPPSREEMTKNQVSLTCLVKGFYPSDIAVEWESNGQPENNYKTTPPVLDSDGSFFLYSKLTVDKSRWQQGNVFSCSVMHEALHNHYTQKSLSLSPGK
For B3, the values for the Kd with Activin B [4], in the assay with GDF11 [5] and with Activin A [6] were 0.788 nM, 0.123 nM and 13.5 nM, respectively.

B4: ActRIIB-Fc +15tail (protein)
chain: B3 chain with D60L
Molecule B4 displayed a Kd with Activin A [7] of about 26 nM.

B5: ActRIIB-Fc K55A (protein)
chain: B3 chain with K55A, D60L
B5: in the assay with GDF11 [8], the binding result is recorded as “no binding”.

B6: ActRIIB(20-134)-hFc (protein)
chain: B3 chain with D60L
On to B6, for which the values for the Kd in the assay with Activin B [4], with GDF11 [5] and with Activin A [6] were 0.012 nM, 0.036 nM and 0.016 nM, respectively.

B7: ALK4-Fc:ActRIIB-Fc heterodimer (protein)
chain 1: SGPRGVQALLCACTSCLQANYTCETDGACMVSIFNLDGMEHHVRTCIPKVELVPAGKPFYCLSSEDLRNTHCCYTDYCNRIDLRVPSGHLKEPEHPSMWGPVETGGGTHTCPPCPAPELLGGPSVFLFPPKPKDTLMISRTPEVTCVVVDVSHEDPEVKFNWYVDGVEVHNAKTKPREEQYNSTYRVVSVLTVLHQDWLNGKEYKCKVSNKALPAPIEKTISKAKGQPREPQVYTLPPSREEMTKNQVSLTCLVKGFYPSDIAVEWESNGQPENNYDTTPPVLDSDGSFFLYSDLTVDKSRWQQGNVFSCSVMHEALHNHYTQKSLSLSPG
chain 2: B3 chain with D60L, V226A, E252K, D295K
As to B7, the Kd turned out to be 2.7 nM with BMP6; 0.074 nM with BMP10; 4.9 nM with GDF3; 0.55 nM in the assay with GDF8 [9]; 0.003 nM in the assay with GDF11 [10]; 0.012 nM with Activin A [11]. The figures for the Kd with Activin B [12] and in the assay with BMP9 were 0.006 nM and 3.4 nM, respectively.

One may read the Kd as the concentration at which binding is half-saturated. High values mean a looser complex, low ones a tighter complex.
